Each block holds one molecule with its values, some of them ahead of it.
Experiments:
Escherichia coli MDH = biological target: T1, Escherichia coli MDH (Escherichia coli, UniProt P61889); design: Purified MDH activity, NADH oxidation at 340 nm with varied oxaloacetate, 150 uM NADH, pH 7.4, Michaelis-Menten fit; conditions: substrate; read-out: KM (oxaloacetate)
T1 construct: C-terminal His6 tag, pET24a, expressed in E. coli BL21(DE3)
T1 sequence (P61889 1-312): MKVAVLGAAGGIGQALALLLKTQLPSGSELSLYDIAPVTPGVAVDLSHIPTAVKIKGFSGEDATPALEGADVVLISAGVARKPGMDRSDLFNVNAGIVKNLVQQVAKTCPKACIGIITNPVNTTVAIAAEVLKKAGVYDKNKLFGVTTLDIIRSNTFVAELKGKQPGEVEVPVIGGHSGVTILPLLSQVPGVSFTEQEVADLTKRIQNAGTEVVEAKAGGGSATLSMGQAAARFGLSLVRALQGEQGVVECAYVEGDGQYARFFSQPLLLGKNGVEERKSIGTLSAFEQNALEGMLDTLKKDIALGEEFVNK
Protocol: (§1) Determination of MDH activity was based on spectroscopic assays (30). […] Specifically, a range of oxaloacetate (Sigma) concentrations (7.5–250 µM), 150 µM NADH (Sigma), 5 nM MDH in 0.1 M sodium phosphate buffer, pH 7.4 were used. […] The catalytic parameters, kcat and KM, were calculated by fitting the data using non-linear regression to Michaelis-Menten equation, v0 = (kcat·[E]·[S])/(KM + [S]), where v0 is initial velocity, [E] is MDH concentration, [S] is […]. Original and mutated mdh genes used in the study are summarized in Supplementary Data 1. B. subtilis mdh gene was amplified by PCR from the chromosomal DNA of B. subtilis PY79. Nucleotide sequences of orthologous mdhs were collected from the KEGG database (https://www.genome.jp/), synthesized by GENEWIZ^© and cloned into i) pHT254 B. subtilis expression vector (MoBiTec Molecular Biotechnology), and ii) pET24a E. coli expression vector (Merck-Novagen) using Gibson assembly. […] All MDH proteins were tagged with Hisx6t at the C-terminal end. Mdh genes cloned into pHT254 plasmid were transformed into B. subtilis PY79. Mdh genes cloned into pET24a plasmid were transformed into E. coli Bl21(DE3) strain.

[1] = substrate: O=C(O)CC(=O)C(=O)O; assay: purified protein, by the assay type; design: Purified MDH activity, NADH oxidation at 340 nm with varied oxaloacetate, 150 uM NADH, pH 7.4, Michaelis-Menten fit; conditions: pH 7.4
Protocol: as §1

purified protein [2] = substrate: O=C(O)CC(=O)C(=O)O; assay: purified protein; assay type: biochemical, Bacillus subtilis; conditions: 150 uM NADH, oxaloacetate 7.5-250 uM, 5 nM MDH, 0.1 M sodium phosphate pH 7.4
purified protein [3] = substrate: O=C(O)CC(=O)C(=O)O; assay: purified protein; assay type: biochemical, Oceanobacillus iheyensis; conditions: 150 uM NADH, oxaloacetate 7.5-250 uM, 5 nM MDH, 0.1 M sodium phosphate pH 7.4
[4] = biological target: T2, isocitrate dehydrogenase (ICD) from Bacillus subtilis (B. subtilis) (UniProt P39126)
T2 sequence: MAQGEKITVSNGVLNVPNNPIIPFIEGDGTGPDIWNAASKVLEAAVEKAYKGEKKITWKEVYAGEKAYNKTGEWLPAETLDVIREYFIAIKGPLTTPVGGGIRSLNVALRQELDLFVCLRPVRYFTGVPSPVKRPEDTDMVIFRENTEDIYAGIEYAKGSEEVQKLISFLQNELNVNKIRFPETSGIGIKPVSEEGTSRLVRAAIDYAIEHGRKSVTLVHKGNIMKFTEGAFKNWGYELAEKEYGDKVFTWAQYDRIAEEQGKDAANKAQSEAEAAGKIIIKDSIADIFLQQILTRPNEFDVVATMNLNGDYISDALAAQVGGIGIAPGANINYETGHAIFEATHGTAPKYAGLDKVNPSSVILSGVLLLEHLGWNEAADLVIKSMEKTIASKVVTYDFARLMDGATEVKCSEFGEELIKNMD

[5] = biological target: T2, isocitrate dehydrogenase (ICD) from Bacillus subtilis (B. subtilis); remark: listed apart in the source

- Km (Escherichia coli MDH): 39 µM
Molecule: O=C(O)CC(=O)C(=O)O [oxaloacetate]

B1: Geobacillus kaustophilus MDH (Geobacillus kaustophilus HTA426) (protein)
chain: MAMKRKKISVIGAGFTGATTAFLLAQKELGDVVLVDIPQLENPTKGKALDMLEASPVLGFDANIIGTSDYADTADSDIVVITAGIARKPGMSRDDLVTTNQKIMKQVTKEVVKYSPNCYIIVLTNPVDAMTYTVFQESGFPKNRVIGQSGVLDTARFRTFVAEELNISVKDVTGFVLGGHGDDMVPLVRYSYAGGIPLEKLIPKDRLDAIVERTRKGGGEIVNLLGNGSAYYAPAASLVEMVEAILKDQRRILPAIAYLEGEYGYEGIYLGVPTILGGNGIEKVIELELTEEEKAALAKSVESVKNVMRMLE
notes: C-terminal His6 tag, pET24a, expressed in E. coli BL21(DE3)
- Km [1]: 54 µM
- kcat [1]: 59 s⁻¹
- kcat/Km [1]: 1.1e+06 M⁻¹ s⁻¹

B2: B. subtilis MDH (BsMDH) (Bacillus subtilis subsp. subtilis str. 168) (protein)
chain: GNTRKKVSVIGAGFTGATTAFLIAQKELADVVLVDIPQLENPTKGKALDMLEASPVQGFDAKITGTSNYEDTAGSDIVVITAGIARKPGMSRDDLVSTNEKIMRSVTQEIVKYSPDSIIVVLTNPVDAMTYAVYKESGFPKERVIGQSGVLDTARFRTFVAEELNLSVKDVTGFVLGGHGDDMVPLVRYSYAGGIPLETLIPKERIDAIVERTRKGGGEIVNLLGNGSAYYAPAASLTEMVEAILKDQRRVLPTIAYLEGEYGYEGIYLGVPTIVGGNGLEQIIELELTDYERAQLNKSVESVKNVMKVLS
notes: full-length, C-terminal His6 tag, pET24a, expressed in E. coli BL21(DE3), Ni-NTA and SEC; 33,643 Da printed
- Km (purified protein [2]): 12 µM
- kcat (purified protein [2]): 120 s⁻¹

B3: O. iheyensis MDH (OceMDH) (Oceanobacillus iheyensis HTE831) (protein)
chain: MGLKRKKISVIGSGFTGATTALMVAQKELGDVVLVDIPDMEDPTKGKALDMAEAAPVQGFDAKITGTSNYADTEGSDLVIITAGIARKPGMSRDDLVNTNANIMKSVTKEIVHYSPNTTIVVLTNPVDAMTYTVFKESGLPKERVIGQSGILDTARFRTFVAEELNLSVKDVTGFVLGGHGDDMVPLIRYSYAGGIPLEKLIPQERLDAIVQRTRTGGGEIVNLLGNGSAYYAPAASLTVMAEAILKDQRRVLPTIAYLEGEYGYQDIYLGVPTILGGEGIEEIIELDLTKEEKAQLDKSADSVKNVLNVLQ
notes: 34,592 Da printed
- Km (purified protein [3]): 23 µM
- kcat (purified protein [3]): 249 s⁻¹

- rate of 2-oxoglutarate formation by ICD within BSA/PEG LLPS droplets, MDH/ICD molar ratios 1:1, 10:1, 50:1, 100:1, 250:1 and 500:1 (~10% enhancement at 10:1; plateau at and above 250:1) [4]: 180%
- partitioning of 2-oxoglutarate towards the droplet phase against the continuous phase, droplets with 1:500 molar excess of MDH, after 40 min of incubation [5]: 2 fold
B4: malate dehydrogenase (MDH) from Bacillus subtilis (enzyme)
chain: MGNTRKKVSVIGAGFTGATTAFLIAQKELADVVLVDIPQLENPTKGKALDMLEASPVQGFDAKITGTSNYEDTAGSDIVVITAGIARKPGMSRDDLVSTNEKIMRSVTQEIVKYSPDSIIVVLTNPVDAMTYAVYKESGFPKERVIGQSGVLDTARFRTFVAEELNLSVKDVTGFVLGGHGDDMVPLVRYSYAGGIPLETLIPKERIDAIVERTRKGGGEIVNLLGNGSAYYAPAASLTEMVEAILKDQRRVLPTIAYLEGEYGYEGIYLGVPTIVGGNGLEQIIELELTDYERAQLNKSVESVKNVMKVLS
